Experimental data reported in patent US20250333520A1 (SYNTHEKINE, published 2025).

T1: Fc fused hCD122 (monovalent) (human, UniProt P14784 27-240, limits assumed)
T1 construct: described only as Fc fused, monovalent
T1 sequence (looked up): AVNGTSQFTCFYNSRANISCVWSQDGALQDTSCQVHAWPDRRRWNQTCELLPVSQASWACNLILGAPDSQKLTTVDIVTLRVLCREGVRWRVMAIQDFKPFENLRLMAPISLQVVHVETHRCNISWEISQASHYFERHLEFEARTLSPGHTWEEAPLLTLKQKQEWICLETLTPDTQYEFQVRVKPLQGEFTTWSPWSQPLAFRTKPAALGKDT

T2: Fc fused hCD132 (monovalent) (human, UniProt P31785 23-262, limits assumed)
T2 construct: described only as Fc fused, monovalent
T2 sequence (looked up): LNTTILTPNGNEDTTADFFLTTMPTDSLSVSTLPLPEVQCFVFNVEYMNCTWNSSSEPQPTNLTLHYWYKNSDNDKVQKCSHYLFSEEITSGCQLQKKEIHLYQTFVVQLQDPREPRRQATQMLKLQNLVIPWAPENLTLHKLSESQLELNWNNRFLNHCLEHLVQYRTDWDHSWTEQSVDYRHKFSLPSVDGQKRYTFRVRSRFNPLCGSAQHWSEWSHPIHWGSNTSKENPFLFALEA

B1: DR638(DR229-DR587) (bispecific antibody)
chain: QVQLQESGGGLVQPGGSLRLSCTASGFSFSSYPMTWARQAPGKGLEWVSTIASDGGSTAYAASVEGRFTISRDNAKSTLYLQLNSLKTEDTAMYYCTKGYGDGTPAPGQGTQVTVSSGGGSQVQLQESGGGSVQVGGSLRLSCATSGDTKSIRCMGWFRQTPGKEREGIAAIDREGFATYADSVYDRFTIAQDNAQNTLYLEMNALKPEDTAMYYCAAQNMCRVVRGAMTGVDYWGKGTQVTVSSASHHHHHH
notes: DR229 VHH - GGGS - DR587 VHH - ASHHHHHH; also called anti-IL2Rb/g VHH2 DR638; non-PEGylated DR638
B2: DR638-PEG40K2a (bispecific antibody)
chain: B1 chain
modifications: one 40 KDa branched polyethylene glycol (mono-PEGylated, coupled with sodium cyanoborohydride at pH ~6.3; residue not stated)
notes: also called PEGylated DR638
B3: DR736(DR588-DR231) (bispecific antibody)
chain: QVQLQESGGGSVQVGGSLKLSCAASGYTYSSYYCMGWFRQAPGKEREGVAAIDSDGSTSYADSVKGRFTISQDDAKNTLYLQMNSLKPEDTAMYYCAASYEVVDCYPSGYGQDYWGKGTQVTVSSGGGSQVQLQESGGGSVQAGGSLRLSCTASGFTFDDREMNWYRQAPGNECELVSTISSDGSTYYADSVKGRFTISQDNAKNTVYLQMDSVKPEDTAVYYCAADFMIAIQAPGAGCWGQGTQVTVSSASHHHHHH
notes: DR588 VHH - GGGS - DR231 VHH - ASHHHHHH; also called anti-IL2Rb/g VHH2 DR736; non-PEGylated DR736

target: T1, Fc fused hCD122 (monovalent); assay: SPR, VHH dimer in the mobile phase, Fc fused hCD122 immobilized
Protocol: (§1) The affinity of the non-PEGylated and the PEGylated forms of DR638 and DR736 prepared in substantial accordance with the foregoing were evaluated by surface plasmon resonance with the VHH dimer molecule in the mobile phase and an immobilized Fc fused hCD122 and hCD132 monovalent and bivalent hCD122/hCD132 Fc construct.

Q: With B1 as the binder, how does the Kd read?
A: < 0.5 nM

Q: With B2 as the binder, how does the Kd read?
A: ~1.1 nM

Q: Which Kd does the source give for B3 here?
A: ~21 nM

target: T2, Fc fused hCD132 (monovalent); assay: SPR, VHH dimer in the mobile phase, Fc fused hCD132 immobilized
Protocol: as §1

Q: With B1 as the binder, how does the Kd read?
A: ~0.5 nM

Q: Which Kd does the source give for B2 here?
A: ~16.3 nM

Q: B3 was tested. Which Kd did it give?
A: ~6.5 nM
